According to PMC11335197:

B1: AT1R wildtype C-terminally fused to YPet [not stated] / AT1R wildtype coupled to mTurquoise2 [not stated] (parent)
chain 1: MILNSSTEDGIKRIQDDCPKAGRHNYIFVMIPTLYSIIFVVGIFGNSLVVIVIYFYMKLKTVASVFLLNLALADLCFLLTLPLWAVYTAMEYRWPFGNYLCKIASASVSFNLYASVFLLTCLSIDRYLAIVHPMKSRLRRTMLVAKVTCIIIWLLAGLASLPAIIHRNVFFIENTNITVCAFHYESQNSTLPIGLGLTKNILGFLFPFLIILTSYTLIWKALKKAYEIQKNKPRNDDIFKIIMAIVLFFFFSWIPHQIFTFLDVLIQLGIIRDCRIADIVDTAMPITICIAYFNNCLNPLFYGFLGKKFKRYFLQLLKYIPPKAKSHSNLSTKMSTLSYRPSDNVSSSTKKPAPCFEVE
chain 2: B1 chain 1

Experiments:
[1] = variants of: B1; experiment: FLIM (FRET) in living HEK293 cells; conditions: with AT1R wildtype coupled to mTurquoise2, 2-exponential fitting, acceptor AT1R-YPet, read off a plot
[2] = variants of: B1; experiment: intensity-based FRET microscopy in living HEK293 cells; conditions: with AT1R wildtype coupled to mTurquoise2; donor AT1R-mTurquoise2 (wildtype), acceptor AT1R-YPet; read off a plot

Row | donor fluorescence lifetime [1] [ns] | response [2] [%] | Variant
1 | 3 | 67 | chain 1 MILNSSTEDGIKRIQDDCPKAGRHNYIFVMIPTLYSIIFVVGIFGNSLVVIVIAAYMKLKTVASVFLLNLALADLCFLLTLPLWAVYTAMEYRWPAGNAACKIASASVSFNLYASVFLLTCLSIDRYLAIVHPMKSRLRRTMLVAKVTCIIIWLLAGLASLPAIIHRNVFFIENTNITVCAFHYESQNSTLPIGLGLTKNILGFLFPFLIILTSYTLIWKALKKAYEIQKNKPRNDDIFKIIMAIVLFFFFSWIPHQIFTFLDVLIQLGIIRDCRIADIVDTAMPITICIAYFNNCLNPLFYGFLGKKFKRYFLQLLKYIPPKAKSHSNLSTKMSTLSYRPSDNVSSSTKKPAPCFEVE [chain 1 Y54A F55A F96A Y99A L100A]
2 | 3.5 | 35 | chain 1 MILNSSTEDGIKRIQDDCPKAGRHNYIFVMIPTLYSIIFVVGIFGNSLVVIVIYFYMKLKTVASVFLLNLALADLCFLLTLPLWAVYTAMEYRWPFGNYLCKIASASVSFNLYASVFLLTCLSIDRYLAIVHPMKSRLRRTMLVAKVTCIIIWLLAGLASLPAIIHRNVFFIENTNITVCAFHYESQNATLPAGLGATKNAAGFAAPFLIILTSYTLIWKALKKAYEIQKNKPRNDDIFKIIMAIVLFFFFSWIPHQIFTFLDVLIQLGIIRDCRIADIVDTAMPITICIAYFNNCLNPLFYGFLGKKFKRYFLQLLKYIPPKAKSHSNLSTKMSTLSYRPSDNVSSSTKKPAPCFEVE [chain 1 S189A I193A L197A I201A L202A L205A F206A]
